Test results reported in the DeepSol protein solubility set.

experiment: soluble on expression in E. coli; label from the status in PepcDB or PDB records

Row | Sequence | soluble on expression in E. coli
1 | MILETISKQLQEQQESLNKDYRKKLESIKERSDRLESDLKTQFDAQLEKWEQNFKGYEQQLTDILNEREQLDLDQQRLNAQKQALENHMKQREE | not soluble
2 | MILIKNGRVMDPKSQRDQVADVLIDGKQIVKIASAIECQEAQVIDASGLIVAPGLVDIHVHFREPGQTHKEDIHTGALAAAAGGVTTVVMMANTNPVISDVETLQEVLASAAKEKIHIYTNASVTQAFNGKDVTDFKALLEAGAVSFSDDGIPLESSKVLKEAFDLANANQTFISLHEEDPQLNGVLGFNEGIAEEHFHFCGATGVAEYSMIARDVMIAYDRQAHVHIQHLSKAESVQVVAFAQQLGAKVTAEVSPQHFSTTEDLLLIAGTSAKMNPPLRTQRDRLAVIEGLKSGVITVIATDHAPHHKDEKTVDDMTKAPSGMTGLETSLSLGLTHLVEPGHLTLMSLLEKMTLNPALLYGFDAGYLAENGPADLVIFADKQERLITENFASKASNSPFIGNKLKGVVKYTIADGEVVYPN | not soluble
3 | MILINVKYQVRPEYVDTFLDEVKWFTDACRAEEGNLFFDWFKNPEKDNEFILVEGFKDGSDVAHVQSEAFQRACEEIPRYLLETPKIINVSIPGKTEWDTMAEFVVE | not soluble
4 | MILKPENEKKLIIDVLKKFGVPEEDAKITADVFVDADLKGFTSHGIGRFPQYITALKLGNINPKPDIKIVKESPATAVIDGDLGLGQVVGKKAMELAIKKAKNVGVGVVATRNANHFGIAGYYSELAMNQDMIGITITNTEPAMAPFGGKEKILGTNPIAIAFKGNKYKFSLDMATASIARGKILEALRKKIKIPEGCAVDKDGKPTTDPAKALEGCILPFGGPKGYGLALAIEMLSAIGGAEVGTKVKGTANPEERCTKGDLFIAINPEFFMGKEEFKRKVDELLDEIKNSEPAEGFEILIPGEIEERNKMKRKDGFEIDKNLYNQLKEICNELGLNIEDYIE | soluble
5 | MILKTTLELVIDVKNNEKKIRTHSWKTKKIPPKKGEVSGQKLMVEKKSSKIFIENLKCQGNSAKNIFVFHLDLLHIKKLKNLNISMSSTDPILDISFDKPVYYPGDNMKLTVSVDTKRPLNARSVMFRCRGFRNRTVSFLNKYGIAWICKDGKNELPVGRLEQKFQFELGKDCPPTYKDGKIIYKVRLEIDQPWSRPLFIEKEFKMVHKLADQKMSQVMTYTSSPRFDALFSNGQPTFKVTMPKFTLYPGETTEFKLEVENHSSSTVKKIYAELEAEPFPLYHIYGNTKAKGKMHVLVAPYSTQKFTIPFTIPTDLTASFHTCGSSLKYTMKFGLVTDSWLTTDPALALVVSIGELESEEKKDEALKTPPPPPYTA | not soluble
6 | MILLIDNYDSFVFNVKSMLEQLSNDEILVRRNDAISLSEIKNLNPTHIILSPGPKHPSQSGICLEIFKARLNIPVLGICLGHQALALAFDSLVVKMQEPMHAKNSLIKQCRENELFSNLPSNFSVMRYHSLEVKQLSDELEILALDEKGVIMALGHKNLPYYGVQFHPESYFSEYGLQLFSNFLKQDIKKPQKQENPLSFYLQKMSENHFLQSDDFEQICKIIMSKDYEILQVVALLILITEKSLNEKSLSAFVRQILRYSQTFSDESEMIDICGTGGDGFKSINVSTTSAFILAALGVKVAKHGNRAISSSSGSTDVLEALNITTPNTLESVLKQLNNQGLSFLHAPFFHPLVGELKEIRSRLGVRTVFNVLGPLLHPNLKLKYQLMGNYHAPVHRLLIEVLKNLGRKKALVVRGNDGMDELSICDESKIYELCEGEILEYSICPEQFGFKRAFHSEIIGSSAYDNAKDLKDILSGRMQGAKFDLVVLNAMFALYTANKASSPLVAKDMILEAIYSGKVIEYFKEYQAYAKA | not soluble
7 | MILMESLSVSGTETVSVPQDWNVMDVIGAKSWYVVSEKEPSWEEIIKGKTVEAVDEPPSRFEVISTSPLVLKKDTKYYIYNSTLKKWLVLEYEEPQSSRKLVMNGQGKVTLLLRSSGSWNVRYYLFEDTLTGNAFLSVSGVESADVFLISRPAGEASIWKGMYLSASPSREMPEEHESEEVKVYHLGKVKDLDKSPVVNLIETNLFNVNEYYSYSFAVNDSIFDYQKTTFTRSFMTPVDLPGGTVSIFSNISGVDIMIGETSIPDTPKNSLLELPVTDSWDVRVKGEILDERNYKDTYEYERTWRVTVQNLNETESKVRINIYGNMMRLLRSSIKPLKETSDQIVFELIVPPNSEKEFEFKVRSGWLEHHHHHH | not soluble
8 | MILVFLGPPGAGKGTQAKRLAKEKGFVHISTGDILREAVQKGTPLGKKAKEYMERGELVPDDLIIALIEEVFPKHGNVIFDGFPRTVKQAEALDEMLEKKGLKVDHVLLFEVPDEVVIERLSGRRINPETGEVYHVKYNPPPPGVKVIQREDDKPEVIKKRLEVYREQTAPLIEYYKKKGILRIIDASKPVEEVYRQVLEVIGDGN | soluble
9 | MIMKANIFNIQRFSIHDGPGIRTVVFFKGCPLRCPWCSNPESQHRPPQILWDKKKCFYGHLCEVKCPAGCLNFENNNLVFSADNCTGCKSCITQCPGKALTFVGNMMELDEVMEEVLKDMDFYQESKGGVTLSGGEVLVQPDFAAALLKKCKENGIHTALETTAFSTPLVFSKVLANTDLLLLDIKHYNDREHIKYTGVSNQSILENLDFAVTMKVPVVARIPVIPSVNNTIQDAKEFVKLLKEHRVDTVNLLPFHQFGEKKYEELQVPYQLKDVKALRPEDMTEYYNVFKNAGLNVSM | not soluble
10 | MINKTKEKLILIGMPGSGKTTIGKLLAKEYNCSFCDMDDYIIQISQKSIAELFSEGEDIFRNYETQACRELSISDKTVISTGGGVIKKDVNMEILKETGIIIFIDRPIQKILEDININSRPLLKNGKDRLYNLYNERINLYKKFSDIEILNDKSLNNAVYNITNAVSENFKFDFKEK | not soluble
11 | MINMKPQYYLGMMSGTSLDGVDIVLVDFSQDPQLILSDFFPMPEDLREKLTTLIQVGETTLQNLGELDHKLALLYSDCVNAFLQKNTFLPNQIQAIGCHGQTVWHSPNSQFPFTMQLGDMNLLAAKTGISVIGDFRRKDMAWGGQGAPLVPAFHEAVFSNSNFATAVLNIGGISNVSILFPNQAVIGFDTGPGNTLLDQWIEKHQGLRYDENGEWAAKGNVNKVLLDELLNEPFFSLPAPKSTGRELFNLVWLNHKIAKIREKLTALSVEMSFRPEDVQATLVELTVTSIVNALNQLQTDLPKRLLVCGGGAKNSLIMRGLHDNLLDWQVSTTTEQGFDIDYVEAAAFAWLAYCRINNLPANLPSVTGAKSAVSLGAIFPKD | not soluble
12 | MINPIASLSPLDGRYAQSVEALRPIFSEYGLMKARVKVELNWLKALAAEPKIAEVPPFSAETLAEIDTVIENFSLEDAAAVKAIEATTNHDVKAIEYWLKKRFAEVPEVAAVSEFIHFACTSEDINNLSHALMLQEAREAVLLPKLAEIIEKLTAMAHDLAAVPMMSRTHGQPATPTTLGKETANVVYRLQRQFKNLQAQEFLGKINGAVGNYNAHMVAYPDVDWETHCRNFVEISLGLTFNPYTIQIEPHDYMAEFFQTLSRINTILIDFNRDVWGYISLGYFKQKVKAGEVGSSTMPHKVNPIDFENSEGNLGMANAVLGFLSEKLPISRWQRDLTDSTVLRNMGVGVGYAVLGFAAHLRGLNKLEPNPAALAADLDATWELLAEPIQTVMRRYGVANPYEKLKDLTRGKGGITPEVLKGFIGLLEIPAEAKAKLLELTPALYVGKAEALAKRI | not soluble
13 | MINRTLKQVEQMINGTGLAEQYEGITIQGVSIDTRKIEKGNLYVPIQGERFDGHAFVDKAVENGAVATLWVKDVANPPENLPVIFVEDTLSALQMLAKNYRDQLDVKVIGVTGSNGKTSTKDIVTSLLATKFKVQKTEGNFNNHIGLPLTILNLEENTEVAVLEMGMSSRGEIEFLSKLARPNAAIITNIGEAHLMDLGSREAIAEAKLEIVTGLQEGGVFVYNGDEPLLTNRVPEMNLIAETVTFGDARANDYYPTTVTLQATGTHFKMNREENISFYLPVLGKHNVYNTLASMAIAKYFGVTWEEMKEGLVTLQMTGMRMEIVKTDSGLTIINDAYNASPTAMEAAFHLMNGLDGFSKKIVVLGDMLELGDQEVQFHYEVGKLIDPAKISYVFTYGKLGAQIAEGAKINFPNERVKAYDNKEELVKELQAVVDTKDVVLVKASRGMKLEEVITMLK | not soluble
14 | MINVDPPTGNFPASGGNSVHNIVSESDSRLAFKVKSSNNEHYRVRPVYGFIDPKGKTKLDINRIAGPPKVDKLVIQYAEVPADETDPQAPFKAGAQQGEVIVKITAE | not soluble
15 | MIPADGWRHVGDQWLVSTDGAKIHASELADHLLADFGYAIVYDEMAEPVDLYRTQRFANDKQRLILTADQLLCADPQCTRAAYRGQAHHIEAWKNGGDTNLKNLCLTCGPHNALNDDDHAKGKHKNGHYVRDKYNGRIGWQPPDPTKSIRFNNHVLAQKSGRSWAIRHFGL | not soluble
16 | MIPGEYIIKNEFITLNDGRRTLNIKVSNTGDRPVQVGSHYHFFEVNRYLEFDRKSAFGMRLDIPSGTAVRFEPGEEKTVQLVEIGGSREIYGLNDLTCGPLDREDLSNVFKKAKELGFKGVE | not soluble
17 | MIPLVAPRSVIERVEAICREAGGILRVAPYRRLQVGLITTGSEVYKGRIKDAFGPVVRAKIASYGSEVALEKVVPDDAAAIHDAIEEMLAAGMQMVVLTGGMSVDPDDVTPDGIRRSGAEVVTYGAPVLPGAMFMLAYRGDVPIMGLPGCVMYYRATVFDLVLPRILVGERLEHHHHHH | not soluble
18 | MIPRILGALLLCLACAAQAGVYTYIDAEGNRVYTDQPPSGRKAQRVELAPGNSVAPPGIRYRPPAAPLEVKPPAYQLLRILFPEPDATLRANSGDVIVTVTSEPALLPGHRYRLLLDGKPAGVPGRSPVFPLKNLDRGTHQVAVEIIDGDGMTVESTPSQPFHLHRVSIAGQPLPEVDTPLVSAIEPSER | not soluble
19 | MIPTERRQIILDMVAEKGIVSIAELTERMHVSHMTIRRDLQKLEQQGAVIQVSGGVQSSTRVAHEPSHQIKTELATPQKAAIGKLAASLVQPESCIYLDAGTTTLAIARQLVTMNKLTVVTNDFVIADYLMDNSNCTIIHTGGAVCRENRSCVGEAAATLLRGLMIDQAFISASSWSVRGISTPAEDKVTVKRAVASASRQKILVCDATKYGQVATWLALPLAEFNQIVTDDGLPESAIRALAKVDISLLMAKQLEHHHHHH | soluble
20 | MIQLEKLTKHFGTKRVVHDASAQFDKGQVTAIIGPNGAGKSTLLSMASRLVNRDAGKVWIEQRELVEWNTKALAQKLAVLRQSNVLNMRFTVRELTAFGRFPYSQGKLTTQDEQIINQAIEYLDLETIQYQYLDELSGGQRQLAFIAMVMAQDTDYVFLDEPLNNLDIKHSLQIMSTLRRLAHELNKAVVVVIHDINFASCYADKIVALKKGEVVATGSVRDVIQSEVLSAIYDTPFNVIEMQGQRLCLYTLPT | not soluble
21 | MIRHRFSAEDFHRMAEAGILGEDDRVELIRGEVVELSPVGKRHMAALKRLMNALFPLQQAKKALLQVQDPLRLFPDTEPQPDLALLAYRDDFYRERVPEAKDALLVVEVAETSLDHDLQVKLPLYAQAGIPEVWVVDLVREKVHVFRKPQGEGYGEAQALEDGELSVLGLKVPVKEVLP | soluble
22 | MIRIGVLISGSGTNLQAILDGCREGRIPGRVAVVISDRADAYGLERARRAGVDALHMDPAAYPSRTAFDAALAERLQAYGVDLVCLAGYMRLVRGPMLTAFPNRILNIHPSLLPAFPGLEAQRQALEHGVKVAGCTVHFVTAGVDEGPIILQAAVPVLEGDTVEDLRRRILAEEHRIYPEAIRLFAEGRLVIEGRRVRILDRAEAPRG | soluble
23 | MIRKWDTKDTAPLLALWLDSTIHAHPFISESYWRDSVAVVRDVYLPAASTWVWEQDGELKGFVSVLDSRFVGALFVAPGATRQGIGRALLDEVKQHYAWLSLEVYQKNESAVSFYHAQGFRIEDCAWQDDTQHPTWIMRWPADQMP | not soluble
